According to US20150362492A1 (DYAX, published 2015):

Biological target: T1, purified human plasma kallikrein (active form), biotinylated (human, UniProt P03952 20-390; P03952 391-638, biotinylated with Sulfo-NHS-LC-Biotin (sites not given))
T1 construct: The protein was captured on avidin-coated plates through biotin; also called pKal; PKal
Experiment: complex ELISA: biotinylated kallikrein captured on avidin plate, incubated with plasma, bound C1-INH detected with polyclonal anti-C1-INH and alkaline phosphatase secondary antibody
Experimental: Immulon 2HB plates were coated with 5 μg/ml avidin in coating buffer (100 μl) overnight at 4° C. Plates were washed three times using PBS-Tween (200 μl/each). Subsequently, 200 μl 1% BSA in PBS was added to block the unused sites. The plates were incubated at 37° C. for 1 hr. Plates were washed three times using PBS-Tween (200 μl/each). Added to the plates were: 25 μl standards or samples, 25 μl biotinylated […] and/or biotinylated kallikrein (1 μg/ml), and 50 μl binding buffer. Plates were mixed and incubated at 37° C. for 1 hour. Plates were washed three times using PBS-Tween (200 μl/each). A polyclonal antibody to C1-INH was added and incubated at room temperature for 1 hour. Plates were washed three times using PBS-Tween (200 μl/each). Alkaline phosphatase conjugated secondary antibody was added and incubated at room temperature for 1 hour. […] The OD at 450 nm was read and calculations were performed using the standard curve.
One consideration in development of the assay was that it is beneficial to employ an assay that quantitates functional C1-INH based on an enzyme that is requisite for bradykinin formation. […] Nevertheless, complex ELISA assays detecting functional interaction between C1-INH and either Factor XIIa or kallikrein worked well since only that fraction of kallikrein (˜60%) that is inhibited by C1-INH is detected.

T1 sequence (P03952 20-390, chain 1 of 2): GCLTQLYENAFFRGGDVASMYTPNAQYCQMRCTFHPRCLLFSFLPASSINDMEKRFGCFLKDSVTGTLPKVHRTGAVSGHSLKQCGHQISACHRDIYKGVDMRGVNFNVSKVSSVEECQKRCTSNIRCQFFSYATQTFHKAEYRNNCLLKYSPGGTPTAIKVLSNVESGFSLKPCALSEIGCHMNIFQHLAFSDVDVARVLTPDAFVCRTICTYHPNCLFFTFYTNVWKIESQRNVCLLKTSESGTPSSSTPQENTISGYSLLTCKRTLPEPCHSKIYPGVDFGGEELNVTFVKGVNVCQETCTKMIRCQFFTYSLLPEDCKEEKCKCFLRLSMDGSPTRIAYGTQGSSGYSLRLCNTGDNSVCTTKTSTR
T1 sequence (P03952 391-638, chain 2 of 2): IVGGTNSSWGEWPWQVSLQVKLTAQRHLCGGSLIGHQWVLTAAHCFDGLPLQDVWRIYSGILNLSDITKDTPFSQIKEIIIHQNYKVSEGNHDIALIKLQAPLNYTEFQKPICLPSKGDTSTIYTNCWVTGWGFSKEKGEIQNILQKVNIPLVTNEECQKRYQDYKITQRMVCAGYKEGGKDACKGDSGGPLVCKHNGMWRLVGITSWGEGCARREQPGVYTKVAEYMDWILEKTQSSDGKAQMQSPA

binding result: binds
B1: plasma protease C1 inhibitor (C1-INH) in plasma of healthy (normal) controls (other)
chain: NPNATSSSSQDPESLQDRGEGKVATTVISKMLFVEPILEVSSLPTTNSTTNSATKITANTTDEPTTQPTTEPTTQPTIQPTQPTTQLPTDSPTQPTTGSFCPGPVTLCSDLESHSTEAVLGDALVDFSLKLYHAFSAMKKVETNMAFSPFSIASLLTQVLLGAGENTKTNLESILSYPKDFTCVHQALKGFTTKGVTSVSQIFHSPDLAIRDTFVNASRTLYSSSPRVLSNNSDANLELINTWVAKNTNNKISRLLDSLPSDTRLVLLNAIYLSAKWKTTFDPKKTRMEPFHFKNSVIKVPMMNSKKYPVAHFIDQTLKAKVGQLQLSHNLSLVILVPQNLKHRLEDMEQALSPSVFKAIMEKLEMSKFQPTLLTLPRIKVTTSQDMLSIMEKLEFFDFSYDLNLCGLTEDPDLQVSAMQHQTVLELTETGVEAAAASAISVARTLLVFEVQQPFLFVLWDQQHKFPVFMGRVYDPRA
notes: Native C1-INH as present in citrated plasma of healthy human controls (purified C1-INH in buffer was used for the standard curve); also called functional C1-INH
